Consider five molecules from PMC7949122 (The Journal of Biological Chemistry, 2021).

“Also recorded” adds a separate entry of the source. Non-standard residues stand in square brackets, D forms with d. No end group written: not given here. Hyp = O=C(O)[C@@H]1C[C@@H](O)CN1; 2Thi = N[C@@H](Cc1cccs1)C(=O)O; NChg = not defined here

The IC50 is the concentration needed to halve the response being measured. A high value points to weaker potency in that assay.

For assay [1], the system named is endogenous B1R in HeLa cells (ERK1/2 phosphorylation). The experiment in a line: ERK1/2 phosphorylation (western blot) after B1R stimulation, AltB2RFlag versus Mock stable HeLa cells. The assay is classed as cell-based, human. Particulars: 1 μM NG29, n = 3. A general note: In western blotting, separated proteins are transferred to a membrane and probed.
The test system of another assay is B1R. More on the design: method as in PMID 15734727. The conditions noted are these: cited from earlier work.
In assay [2] the target is T1, human B2R on transfected HEK293A cells (human, UniProt P30411 1-391).
T1 chain: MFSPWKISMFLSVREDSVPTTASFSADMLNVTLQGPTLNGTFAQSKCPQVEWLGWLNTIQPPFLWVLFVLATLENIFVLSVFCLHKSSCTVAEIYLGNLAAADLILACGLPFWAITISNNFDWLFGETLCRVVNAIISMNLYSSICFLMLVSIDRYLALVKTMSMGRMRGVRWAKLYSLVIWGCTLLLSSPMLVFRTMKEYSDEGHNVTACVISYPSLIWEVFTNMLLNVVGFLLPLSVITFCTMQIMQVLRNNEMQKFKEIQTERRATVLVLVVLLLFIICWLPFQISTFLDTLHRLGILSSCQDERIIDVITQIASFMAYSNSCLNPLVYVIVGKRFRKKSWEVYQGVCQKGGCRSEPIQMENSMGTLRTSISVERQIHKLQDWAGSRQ
The experiment in a line: B2R; displacement of [3H]-BK. (In general: In a radioligand displacement assay an active substance lowers the binding of a labelled ligand.)

Assay [3] deals with T1, human B2R on transfected HEK293A cells. Nature of the assay: B2R(Ø); displacement of [3H]-BK.

Take SarLys[Dphe^8]desArg^9-BK [NG29]: the “phosphorylated ERK1/2 after B1R stimulation, AltB2RFlag versus mock HeLa cells” value in assay [1] is “not significant; also recorded: did not observe any difference in the increased levels of phosphorylated ERK1/2 between mock and AltB2R^Flag cells”.
“desArg^9-BK: carboxy-terminally truncated peptide metabolite (RPPGFSPF; Bradykinin; UniProt P01042 381-388, looked up, fragment)”: the kinin receptor selectivity entry in the assay on B1R is recorded as “selectively bind to the other type of kinin receptor, the inducible B1R”.
On to “desArg^10-KD: carboxy-terminally truncated peptide metabolite (KRPPGFSPF; Lysyl-bradykinin; UniProt P01042 380-388, looked up, fragment)”, for which the kinin receptor selectivity result with B1R is “selectively bind to the other type of kinin receptor, the inducible B1R”.
Take RP[Hyp]G[2Thi]S[NChg][2Thi]R (reading uncertain; also: printed as [Hyp^3,Thi^5,^NChg^7,Thi^8]-BK) [NG291 ([Hyp^3,Thi^5,^NChg^7,Thi^8]-BK)]: the values for the IC50 in assay [2] and in assay [3] were 6.21 nM and 4.38 nM, respectively.
With RP[Hyp]G[2Thi]SP[Tyr(4-Me)]R (also: ΨCH2NH reduced bond between residues 8 and 9) [RMP-7 ([Hyp^3,Thi^5,(4-Me)Tyr^8(ΨCH2NH)Arg^9]-BK)], the IC50 was found to be 17.7 nM in assay [2] and 18 nM in assay [3].
